For one substance, per cent of the material results are on record in publication PMC2137388.

This assay has as its target L chains of normal human 7S γ-globulin (human). As to the kind of experiment: AUC.

“L chains of normal human 7S γ-globulin (natural protein)”: the per cent of the material at the molecular weight of the dimer turned out to be 84 per cent.
